This passage reports Kd results from PMC3105379.

Experiment in all cases: other fluorescence titration
The target in test [1] is BIQ, fluorescent reporter containing an IQ domain sequence derived from neuromodulin (UniProt P17677).
The target of test [2] is BIQG^6A, variant of BIQ with replacement A for the G at position 6.
Test [3] has as its target BIQ, fluorescent reporter containing an IQ domain sequence derived from neuromodulin (UniProt P17677). The source holds these as a separate data set.
For test [4], the target named is BIQG^6M, variant of BIQ with replacement M for the G at position 6.
The target of test [5] is BIQG^6R, variant of BIQ with replacement R for the G at position 6.
In test [6] the target is BIQG^6A, variant of BIQ with replacement A for the G at position 6. This is another data set of the same source.

Like-named read-outs stand apart in the source and are kept apart here.

As for “calmodulin (native CaM) (from UniProt P0DP23 1-149) (natural protein)”, the Kd is 2400 nM in test [1]; 5400 nM in test [2]; 2900 nM in test [3]; 400 nM in test [4]; 400 nM in test [5]; 900 nM in test [6].

For orientation: Kd means the concentration at which binding is half-saturated.
